Results reported in US7250269B2, “Composition for assaying glycoprotein” (Asahi Kasei Pharma Corporation, priority 2001, dated 2007).

Assays:
[1] = Isoelectric point by focusing electrophoresis; assay type: physicochemical; conditions: 700 V for 40 hours at 4° C.; carrier ampholyte
Protocol: The isoelectric point determined by fractionating the enzyme after applying a constant voltage of 700 V for 40 hours at 4° C. in a focusing electrophoresis using carrier ampholyte, followed by measuring the enzyme activity of each fraction, was pH 4.3±0.2.

[2] = FOD enzyme activity / substrate specificity on glycated valine; assay type: biochemical
Protocol: (§1) 164 strains of mutant colonies obtained in Example 15 were cultured for 16 hours at 30° C. in 1.5 ml of a 3.7% BHI liquid medium (manufactured by DIFCO Co.) containing 50 μg/ml of ampicillin and 1 mM of IPTG. 1 ml of the culture broth was centrifuged (15,000 G for one minute at 4° C.) to collect cells. 200 μl of 10 mM Tris-HCl buffer solution (pH 8.0) was added to the collected cells. After crushing the cells using an ultrasonic breaker, the mixture was centrifuged (14,000 G for five minutes at 4° C.) to obtain a cell extract as a supernatant.
(§2) The glycated amino acid substrate specificity of FOD-mutated recombinant contained in the cell extract prepared in Example 16 was measured using the above-mentioned FOD enzyme activity measuring method.
(§3) Synthesis of an oligonucleotide having the base sequence of 1-27 in the sequence table Sequence ID No. 7 was consigned to an outside source (BEX Co., Ltd.). The oligonucleotide was subjected to the site-directed mutagenesis using the Mutan-K kit (manufactured by Takara Shuzo Co., Ltd.) according to the manual attached to the kit. The mutant gene obtained was incorporated again into the expression plasmid pTV119N, introduced into Escherichia coli host, and cultured at 30° C. for 16 hours in a 3.7% BHI liquid medium containing 50 μg/ml of ampicillin and 1 mM of IPTG to produce mutant FOD protein.

[3] = FOD enzyme activity / substrate specificity on glycated lysine; assay type: biochemical
Protocol: as §1, §2, §3

- Substrate specificity FV [2]: 0%
- Substrate specificity ZFL [3]: 100%
B1: Reactive 327th amino acid Tryptophan: mutant obtained by replacing the lysine with tryptophan, named FOD-W; plasmid pcmFOD3; Sequence ID No. 2 (protein)
chain: ASTLTKQSQILIVGGGTWGCSTALHLARRGYTNVTVLDVNRIPSPISAGHDVNKLAGRLSTADSKGDDEDSIWKALSYAAAQGWLHDPVFQPFCHNTGSVVAGSTPKSIKQLVEDEIGDDIDQYTPLNTAEDFRKTMPEGILTGNFPGWKGFYKPTGSGWVHARKAMKAAFEESERLGVKFITGSPEGKVESLIFEDGDVRGAKTADGKEHRADRTILSAGASAEFFLDFENQIQPTAWTLGHIQMTPEETKLYKNLPPLFNINQGFFMEPDEDLHQLKMCDEHPGYCNWVEKPGSKYPQSIPFAKHQVPTEAERRMKQFLKDIMPQLADRPLVHARICWCADTQDRMFLITYHPRHPSLVIASGDCGTGYWHITSIGKFISDCMEGTLEERFAKFWRWRPEKFTEFWGKDPLDRFGADDKIMDLPKSDVEGWTNIKNDI
modifications: sequence derived from Fusarium oxysporum IFO- 9722
- Isoelectric point [1]: 4.3±0.2
- Optimum temperature (maximum activity) (40 mM Tris-HCl buffer solution (pH 7.5)): 50 °C
- Optimum pH (maximum activity) (100 mM buffers pH 4.4-10.3): 7.5
- Reactivity ratio, glycated lysine / glycated valine ([3]; glycated lysine / glycated valine): 2980
